This note sets out measurements from patent US20230114801A1 (SYSTIMMUNE, published 2023).

T1: CEA (UniProt P06731 35-685, limits assumed)
T1 sequence (looked up): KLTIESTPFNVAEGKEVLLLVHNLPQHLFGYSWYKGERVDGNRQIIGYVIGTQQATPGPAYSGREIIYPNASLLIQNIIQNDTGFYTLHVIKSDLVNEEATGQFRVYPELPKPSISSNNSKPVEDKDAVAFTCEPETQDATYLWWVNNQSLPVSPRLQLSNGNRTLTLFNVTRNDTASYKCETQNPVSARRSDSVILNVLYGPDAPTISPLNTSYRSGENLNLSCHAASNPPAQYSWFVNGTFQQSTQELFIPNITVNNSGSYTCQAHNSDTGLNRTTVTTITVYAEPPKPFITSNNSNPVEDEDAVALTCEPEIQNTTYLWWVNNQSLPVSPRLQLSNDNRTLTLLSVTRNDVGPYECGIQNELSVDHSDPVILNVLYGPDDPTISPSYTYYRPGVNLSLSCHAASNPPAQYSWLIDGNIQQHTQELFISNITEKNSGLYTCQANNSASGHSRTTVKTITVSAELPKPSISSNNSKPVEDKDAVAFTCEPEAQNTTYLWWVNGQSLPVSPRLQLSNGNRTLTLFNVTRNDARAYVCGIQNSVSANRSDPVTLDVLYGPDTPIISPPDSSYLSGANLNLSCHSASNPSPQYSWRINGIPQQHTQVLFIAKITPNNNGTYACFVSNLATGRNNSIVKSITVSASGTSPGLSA

B1: SI-9C21 (antibody, human IgG1, kappa, V domains shown)
VH: EVQLVESGGGLVQPGGSLRLSCTASGFTISTNAMSWVRQAPGKGLEWVGVITGRDITYYASWAKGRFTISRDTSKNTVYLQMNSLRAEDTAVYYCARDGGSSAITSNNIWGQGTLVTVSS
VL: EIVMTQSPSTLSASVGDRVIITCQASESISSWLAWYQQKPGKAPKLLIYEASKLASGVPSRFSGSGSGAEFTLTISSLQPDDFATYYCQGYFYFISRTYVNSFGQGTKLTVLR
notes: monoclonal antibody control for the αCD3 domain; also called αCD3 mAb; D3 = αCD3 control
B2: SI-20C14 (antibody, human IgG1, kappa, V domains shown)
VH: EVQLVESGGGLVQPGGSLRLSCAASGFSFSGTQYVCWVRQAPGKGLEWIGCIYVDVANTYYATSVKGRFTISRDNSKNTLYLQMNSLRAEDTAVYYCASHDTVCAGCGLDLWGQGTLVTVSS
VL: DIQMTQSPSTLSASVGDRVTITCQASENIYSNLAWYQQKPGKAPKLLIYDASTLASGVPSRFSGSGSGTEFTLTISSLQPDDFATYYCQSTYYNNIIYGAAFGGGTKVEIKR
notes: monoclonal antibody control for the αCEA domain; also called αCEA mAb 656E11; SI-20C14 (anti-CEA 656E11)
B3: SI-76PM1 (other)
chain 1: QIVLSQSPAILSASPGEKVTMTCRASSSVSYIHWFQQKPGSSPKPWIYATSNLASGVPVRFSGSGSGTSYSLTISRVEAEDAATYYCQQWTSNPPTFGGGTKLTVLGGGGSGGGGSGGGGSGGGGSQVQLQQPGAELVKPGASVKMSCKASGYTFTSYNMHWVKQTPGRGLEWIGAIYPGNGDTSYNQKFKGKATLTADKSSSTAYMQLSSLTSEDSAVYYCARSTYYGGDWYFNVWGAGTTVTVSSGGGGSGGGGSEVQLVESGGGLVQPGGSLRLSCAASGFTISTNAMSWVRQAPGKCLEWIGVITGRDITYYASWAKGRFTISRDNSKNTLYLQMNSLRAEDTAVYYCARDGGSSAITSNNIWGQGTLVTVSSASTKGPSVFPLAPSSKSTSGGTAALGCLVKDYFPEPVTVSWNSGALTSGVHTFPAVLQSSGLYSLSSVVTVPSSSLGTQTYICNVNHKPSNTKVDKRVEPKSCDKTHTCPPCPAPEAAGGPSVFLFPPKPKDTLMISRTPEVTCVVVDVSHEDPEVKFNWYVDGVEVHNAKTKPREEQYNSTYRVVSVLTVLHQDWLNGKEYKCAVSNKALPAPIEKTISKAKGQPREPQVYTLPPSRDELTKNQVSLSCAVKGFYPSDIAVEWESNGQPENNYKTTPPVLDSDGSFFLVSKLTVDKSRWQQGNVFSCSVMHEALHNHYTQKSLSLSPGGGGGSGGGGSDVVMTQSPSSVSASVGDRVTITCQASQNIRTYLSWYQQKPGKAPKLLIYAAANLASGVPSRFSGSGSGTDFTLTISDLEPGDAATYYCQSTYLGTDYVGGAFGGGTKLTVLGGGGSGGGGSGGGGSGGGGSEVQLVESGGGLVQPGGSLRLSCTASGFTISSYHMQWVRQAPGKGLEYIGTISSGGNVYYASSARGRFTISRPSSKNTVDLQMNSLRAEDTAVYYCARDSGYSDPMWGQGTLVTVSS
chain 2: ENVLTQSPASLSASPGERVTITCSASSSVSYMHWYQQKPGQAPKLWIYDTSKLASGVPSRFSGSGSGNDHTLTISSMEPEDFATYYCFQGSVYPFTFGQGTKVTVLGGGGSGGGGSGGGGSGGGGSQVTLKESGPGLVQPGQTLSLTCAFSGFSLSTSGMGVGWIRQPPGKGLEWLAHIWWDDDKRYNPALKSRLTISKDTSKNQVYLQMNSLDAEDTAVYYCARMELWSYYFDYWGQGTLVTVSSGGGGSGGGGSDVVMTQSPSTLSASVGDRVTINCQASESISSWLAWYQQKPGKAPKLLIYEASKLASGVPSRFSGSGSGTEFTLTISSLQPDDFATYYCQGYFYFISRTYVNSFGCGTKVEIKRTVAAPSVFIFPPSDEQLKSGTASVVCLLNNFYPREAKVQWKVDNALQSGNSQESVTEQDSKDSTYSLSSTLTLSKADYEKHKVYACEVTHQGLSSPVTKSFNRGECGGDKTHTCPPCPAPEAAGGPSVFLFPPKPKDTLMISRTPEVTCVVVDVSHEDPEVKFNWYVDGVEVHNAKTKPREEQYNSTYRVVSVLTVLHQDWLNGKEYKCAVSNKALPAPIEKTISKAKGQPREPQVYTLPPSRDELTKNQVSLWCLVKGFYPSDIAVEWESNGQPENNYKTTPPVLDSDGSFFLYSKLTVDKSRWQQGNVFSCSVMHEALHNRFTQKSLSLSPGGGGGSGGGGSDIQMTQSPSTLSASVGDRVTITCQASQSISSHLNWYQQKPGKAPKLLIYKASTLASGVPSRFSGSGSGTEFTLTISSLQPDDFATYYCQQGYSWGNVDNVFGGGTKVTVLGGGGSGGGGSGGGGSGGGGSEVQLLESGGGLVQPGGSLSLSCAASGFSFSSGYDMCWVRQAPGKGLEWIACIAAGSAGITYDANWAKGRFTISRDNSKNTLYLQMNSLRAEDTAVYYCARSAFSFDYAMDLWGQGTLVTVSS
notes: penta-miniGNC; as SI-38P11 but with an additional disulphide ('staple') in the D3 αCD3 Fab VH/VL
B4: SI-49R27 (bispecific antibody, human IgG1, kappa, L234A L235A, N297A)
chain 1: EIVMTQSPSTLSASVGDRVIITCQASESISSWLAWYQQKPGKAPKLLIYEASKLASGVPSRFSGSGSGAEFTLTISSLQPDDFATYYCQGYFYFISRTYVNSFGCGTKLTVLGSTGSGSKPGSGEGSTKGEVQLVESGGGLVQPGGSLRLSCTASGFTISTNAMSWVRQAPGKCLEWVGVITGRDITYYASWAKGRFTISRDTSKNTVYLQMNSLRAEDTAVYYCARDGGSSAITSNNIWGQGTLVTVSTGGGGSGGGGSFLNSLFNQEVQIPLTESYCGPCPKNWICYKNNCYQFFDESKNWYESQASCMSQNASLLKVYSKEDQDLLKLVKSYHWMGLVHIPTNGSWQWEDGSILSPNLLTIIEMQKGDCALYASSFKGYIENCSTPNTYICMQRTVASTKGPSVFPLAPSSKSTSGGTAALGCLVKDYFPEPVTVSWNSGALTSGVHTFPAVLQSSGLYSLSSVVTVPSSSLGTQTYICNVNHKPSNTKVDKRVEPKSCDKTHTCPPCPAPEAAGGPSVFLFPPKPKDTLMISRTPEVTCVVVDVSHEDPEVKFNWYVDGVEVHNAKTKPREEQYASTYRVVSVLTVLHQDWLNGKEYKCAVSNKALPAPIEKTISKAKGQPREPQVCTLPPSRDELTKNQVSLSCAVKGFYPSDIAVEWESNGQPENNYKTTPPVLDSDGSFFLVSKLTVDKSRWQQGNVFSCSVMHEALHNHYTQKSLSLSPG
chain 2: not shown
notes: bi-miniGNC; D1 αCD3, D3 NKG2D receptor dimer
B5: CD19 (receptor, UniProt P15391 20-291, looked up)
chain: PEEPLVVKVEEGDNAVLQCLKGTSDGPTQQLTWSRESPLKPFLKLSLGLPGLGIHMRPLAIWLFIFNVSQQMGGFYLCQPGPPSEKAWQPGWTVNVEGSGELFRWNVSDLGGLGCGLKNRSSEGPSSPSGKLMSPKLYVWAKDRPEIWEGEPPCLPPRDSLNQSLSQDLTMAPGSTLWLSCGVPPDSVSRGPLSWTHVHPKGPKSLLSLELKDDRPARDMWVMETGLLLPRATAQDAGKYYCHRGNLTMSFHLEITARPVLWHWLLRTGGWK
B6: SI-3FS11 (Fc fusion)
chain: EPKSSDKTHTCPPCPAPEAAGAPSVFLFPPKPKDTLMISRTPEVTCVVVDVSHEDPEVKFNWYVDGVEVHNAKTKPREEQYNSTYRVVSVLTVLHQDWLNGKEYKCAVSNKALPAPIEKTISKAKGQPREPQVYTLPPSRDELTKNQVSLTCLVKGFYPSDIAVEWESNGQPENNYKTTPPVLDSDGSFFLYSKLTVDKSRWQQGNVFSCSVMHEALHNHYTQKSLSLSPGGGGGSGGGGSEVQLLESGGGLVQPGGSLRLSCAASGFSFSSGYDMCWVRQAPGKGLEWIACIAAGSAGITYDANWAKGRFTISRDNSKNTLYLQMNSLRAEDTAVYYCARSAFSFDYAMDLWGQGTLVTVSSGGGGSGGGGSGGGGSGGGGSDIQMTQSPSTLSASVGDRVTITCQASQSISSHLNWYQQKPGKAPKLLIYKASTLASGVPSRFSGSGSGTEFTLTISSLQPDDFATYYCQQGYSWGNVDNVFGGGTKVEIK
notes: Fc-scFv control for the αPD-L1 domain; also called SI-3SF11; αPD-L1 Fc-scFv
B7: SI-35FS11 (Fc fusion)
chain: EPKSSDKTHTCPPCPAPEAAGAPSVFLFPPKPKDTLMISRTPEVTCVVVDVSHEDPEVKFNWYVDGVEVHNAKTKPREEQYNSTYRVVSVLTVLHQDWLNGKEYKCAVSNKALPAPIEKTISKAKGQPREPQVYTLPPSRDELTKNQVSLTCLVKGFYPSDIAVEWESNGQPENNYKTTPPVLDSDGSFFLYSKLTVDKSRWQQGNVFSCSVMHEALHNHYTQKSLSLSPGGGGGSGGGGSRSLVESGGGLVQPGGSLRLSCTASGFTISSYHMQWVRQAPGKGLEYIGTISSGGNVYYASSARGRFTISRPSSKNTVDLQMNSLRAEDTAVYYCARDSGYSDPMWGQGTLVTVSSGGGGSGGGGSGGGGSGGGGSDVVMTQSPSSVSASVGDRVTITCQASQNIRTYLSWYQQKPGKAPKLLIYAAANLASGVPSRFSGSGSGTDFTLTISDLEPGDAATYYCQSTYLGTDYVGGAFGGGTKVEIK
notes: Fc-scFv control for the α4-1BB domain; also called SI-35SF11; α4-1BB Fc-scFv

Experiment [1] addresses T2, human CD3 (human, UniProt P07766 23-126; P04234 22-105).
T2 construct: also called His-tagged human CD3; human CD3 (Acro CDD-H52W1)
The experiment in a line: BLI (Octet), unstapled control mAb or Fc-scFv. (In general: In BLI a coated tip is dipped into the sample, and binding shifts an interference pattern.)

Experiment [2] deals with T1, CEA. The experiment in a line: BLI (Octet), unstapled control mAb or Fc-scFv.
The target in experiment [3] is T2, human CD3. The experiment is described as follows: antigen binding kinetics; method not given.
For experiment [4], the target named is T3, human 4-1BB (human, UniProt Q07011 24-186, limits assumed).
T3 construct: Soluble antigen in Octet; construct not described
The experiment in a line: antigen binding kinetics; method not given.

Experiment [5] concerns the target T4, human PD-L1 (human, UniProt Q9NZQ7 19-238).
T4 construct: Soluble antigen in Octet; bought; also called human PD-L1 (Acro PD1-H5229)
The experiment in a line: antigen binding kinetics; method not given.

The target of experiment [6] is B5. The experiment in a line: antigen binding kinetics; method not given.
Experiment [7] addresses T2, human CD3. The experiment is described as follows: BLI (Octet); conditions not stated.
The target in experiment [8] is NKG2D ligand. The experiment is described as follows: BLI (Octet); conditions and ligand not stated.
The target of experiment [9] is T5, SI-49P9.
T5 construct: penta-miniGNC; D1 αCD3, D2 αCD19, D3 NKG2D receptor dimer, D4 41BBL, D5 αPD-L1
The experiment in a line: BLI (Octet); conditions not stated.

The target of experiment [10] is T4, human PD-L1. The experiment in a line: BLI (Octet), unstapled control mAb or Fc-scFv.
The target of experiment [11] is T3, human 4-1BB. The experiment in a line: BLI (Octet), unstapled control mAb or Fc-scFv.

T5 sequence (chain, as listed by the source): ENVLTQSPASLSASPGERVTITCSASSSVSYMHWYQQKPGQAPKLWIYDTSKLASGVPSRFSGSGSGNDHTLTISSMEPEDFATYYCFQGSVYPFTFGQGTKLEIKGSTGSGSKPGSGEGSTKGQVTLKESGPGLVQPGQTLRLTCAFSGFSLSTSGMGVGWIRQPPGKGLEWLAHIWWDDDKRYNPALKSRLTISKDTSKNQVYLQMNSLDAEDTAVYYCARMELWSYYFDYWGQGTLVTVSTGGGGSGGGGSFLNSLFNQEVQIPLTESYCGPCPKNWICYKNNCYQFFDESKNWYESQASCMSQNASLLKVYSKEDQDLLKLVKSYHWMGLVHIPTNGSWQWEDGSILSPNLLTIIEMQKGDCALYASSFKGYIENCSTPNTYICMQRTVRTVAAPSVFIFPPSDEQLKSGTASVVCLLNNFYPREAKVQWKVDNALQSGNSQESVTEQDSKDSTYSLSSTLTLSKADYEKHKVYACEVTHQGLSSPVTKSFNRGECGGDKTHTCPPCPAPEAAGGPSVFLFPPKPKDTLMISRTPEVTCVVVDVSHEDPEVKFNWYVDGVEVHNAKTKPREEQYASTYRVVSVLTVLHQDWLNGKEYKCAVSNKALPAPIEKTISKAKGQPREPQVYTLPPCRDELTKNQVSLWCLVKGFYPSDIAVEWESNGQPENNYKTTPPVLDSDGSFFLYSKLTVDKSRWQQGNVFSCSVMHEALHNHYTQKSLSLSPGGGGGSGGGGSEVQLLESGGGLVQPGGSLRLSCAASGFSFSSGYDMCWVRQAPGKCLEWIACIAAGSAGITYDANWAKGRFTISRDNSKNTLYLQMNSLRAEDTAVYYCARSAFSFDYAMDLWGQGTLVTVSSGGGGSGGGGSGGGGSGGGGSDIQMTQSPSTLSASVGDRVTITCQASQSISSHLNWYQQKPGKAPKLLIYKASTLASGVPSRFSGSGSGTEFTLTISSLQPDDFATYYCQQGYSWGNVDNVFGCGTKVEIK

In general, Kd refers to a measure of binding affinity in units of concentration. The low end stands for higher affinity, the high end for lower affinity. Molecule B1 returned a Kd in experiment [1] of 26.3 nM.

On to B2, for which the dissociation constant Kd in experiment [2] is less than 0.001 nM.

In the case of B3, the Kd in [3] amounted to 3.22 nM; in experiment [4] it was 22.4 nM; in experiment [5] it was 1.47 nM; in experiment [6], 3.3 nM.

Turning to B4, the equilibrium dissociation constant (Kd) amounted to 32.2 nM in experiment [7] and 16 nM in experiment [8].

B5 gave a Kd in experiment [9] of 6.4 nM.

The molecule B6 had a Kd in experiment [10] of 0.94 nM.

Consider B7, for which, in experiment [11], the affinity, expressed as Kd, was 14.9 nM.
